The source of these data is patent US20250066499A1 (SUNSHINE GUOJIAN PHARMACEUTICAL SHANGHAI, published 2025).

What all share (assay): ELISA; decline multiple of Top against CD73-ND
In one test the target is T1, CD73-ND-L133A (human, UniProt P21589 27-317).
T1 construct: Alanine mutant of CD73-ND
T1 sequence: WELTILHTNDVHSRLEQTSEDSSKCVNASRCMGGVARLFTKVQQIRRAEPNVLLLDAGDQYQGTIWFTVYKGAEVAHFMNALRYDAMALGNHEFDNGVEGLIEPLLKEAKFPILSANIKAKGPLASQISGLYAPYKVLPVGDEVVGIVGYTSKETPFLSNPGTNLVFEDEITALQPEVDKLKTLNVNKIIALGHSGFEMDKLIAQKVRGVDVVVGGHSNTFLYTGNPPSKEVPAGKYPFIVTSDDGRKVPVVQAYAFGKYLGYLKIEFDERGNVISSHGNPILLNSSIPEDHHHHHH
As for the experimental part:
(§1) The ELISA plates were coated with SA protein diluted to 1.5 μg/mL in coating buffer (50 mM carbonate coating buffer, pH 9.6) and incubated overnight at 4° C. The supernatant was discarded, and the plates were washed three times with PBST. Then, 5% skimmed milk powder prepared with PBS was added for blocking and the plates were incubated for 2 h at 37° C. After washing the plates once with PBST, CD73-biotin protein (prepared by biotinylating CD73-His protein according to the EZ-Link NHS-Biotin Reagent instructions) was diluted to 0.5 μg/mL and added at 100 μL/well for incubation at room temperature for 1 h. The plates were washed three times with PBST, and the prepared murine-derived monoclonal antibodies against human CD73 were serially diluted with 1% BSA buffer prepared with PBST and added to the ELISA plates at 100 μl/well. The plates were incubated at 37° C. for 1 h. After washing the plates three times with PBST, HRP-labeled goat anti-mouse IgG secondary antibody was added and the plates were incubated for 30 min at 37° C. After washing the plates three times with PBST, the residual droplets were patted dry on absorbent paper as much as possible. Then, 100 μl of TMB color developing solution was added to each well, and the plates were incubated in the dark at room temperature for 5 min for color development. Subsequently, 50 μl of 2M H₂SO₄ stop solution was added to each well to terminate the substrate reaction. The OD values were read at 450 nm using a multimode microplate reader to analyze the binding ability of the tested antibodies to the target antigen human CD73-His.
(§2) Referring to the experimental method in Example 3, the affinity of 48A11-HuV33 for various mutant proteins of CD73-ND was determined. The SA protein was diluted to 1 μg/mL for coating the ELISA plates, and the biotinylated CD73 protein (CD73-biotin) was used at a concentration of 0.1 μg/mL.

For the next test, the target named is T2, CD73-ND-L138A (human, UniProt P21589 27-317).
T2 construct: Alanine mutant of CD73-ND
T2 sequence: T1 sequence with A133L, L138A
As to the method:
as §1, §2

The next test addresses T3, CD73-ND-Y132A (human, UniProt P21589 27-317).
T3 construct: Alanine mutant of CD73-ND
T3 sequence: T1 sequence with Y132A, A133L
As for the experimental part: as §1, §2

The target of another test is T4, CD73-ND-K136A (human, UniProt P21589 27-317).
T4 construct: Alanine mutant of CD73-ND
T4 sequence: T1 sequence with A133L, K136A
As to the method:
as §1, §2

A further test concerns the target T5, CD73-ND-P134A (human, UniProt P21589 27-317).
T5 construct: Alanine mutant of CD73-ND
T5 sequence: T1 sequence with A133L, P134A
As for the experimental part:
as §1, §2

In a further test the target is T6, CD73-ND-V137A (human, UniProt P21589 27-317).
T6 construct: Alanine mutant of CD73-ND
T6 sequence: T1 sequence with A133L, V137A
As to the method:
as §1, §2

Changes are numbered by the printed parent chain.

B1: 48A11-HuV33 (antibody, human IgG4, V domains shown)
VH: QVQLVQSGAEVKKPGASVKVSCKASGYTFTSYWMHWVRQAPGQGLEWIGEINPSIGRTNYNEKFKSRVTLTRDTSTSTAYMELSSLRSEDTAVYYCARRVYGTMDYWGQGTLVTVSS
VL: DIQMTQSPSSLSASVGDRVTITCKASQDINSYLSWFQQKPGKSPKLLIYRANIWVDGVPSRFSGSGSGQDYTFTISSLQPEDIATYYCLQYDELYTFGQGTKVEIK
notes: Humanized
As to B1, the “Ratio(Top)” value came to 2.3 fold in the test with CD73-ND-L133A; 1.1 fold with CD73-ND-L138A; 8.2 fold with CD73-ND-Y132A; 1 fold with CD73-ND-K136A; 1.1 fold with CD73-ND-P134A; 1.3 fold with CD73-ND-V137A.
